The nature of this series: soluble on expression in E. coli; label from the status in PepcDB or PDB records.
As for “GTGTRFGTDLAKEAKKVHQTTRTVPAKRGTIYDRNGVPIAEDATSYNVYAVIDENYKSATGKILYVEKTQFNKVAEVFHKYLDMEESYVREQLSQPNLKQVSFGAKGNGITYANMMSIKKELEAAEVKGIDFTTSPNRSYPNGQFASSFIGLAQLHENEDGSKSLLGTSGMESSLNSILAGTDGIITYEKDRLGNIVPGTEQVSQRTMDGKDVYTTISSPLQSFMETQMDAFQEKVKGKYMTATLVSAKTGEILATTQRPTFDADTKEGITEDFVWRDILYQSNYEPGSTMKVMMLAAAIDNNTFPGGEVFNSSELKIADATIRDWDVNEGLTGGRMMTFSQGFAHSSNVGMTLLEQKMGDATWLDYLNRFKFGVPTRFGLTDEYAGQLPADNIVNIAQSSFGQGISVTQTQMIRAFTAIANDGVMLEPKFISAIYDPNDQTARKSQKEIVGNPVSKDAASLTRTNMVLVGTDPVYGTMYNHSTGKPTVTVPGQNVALKSGTAQIADEKNGGYLVGLTDYIFSAVSMSPAENPDFILYVTVQQPEHYSGIQLGEFANPILERASAMKDSLNLQTTAKALEQVSQQSPYPMPSVKDISPGDLAEELRRNLVQPIVVGTGTKIKNSSAEEGKNLAPNQQVLILSDKAEEVPDMYGWTKETAETLAKWLNIELEFQGSGSTVQKQDVRANTAIKDIKKITLTLGD”, the “soluble on expression in E. coli” value is listed as “soluble”.

Take “MNHAQSLYPLIERALLCPVLEDKLALAERLHRDWRAGMLARLASPAPYPLPEPGRPERPELVHPARVPKRSLSTRRGHGALLHAIAHIEFNAVNLALDAAWRFRDMPDEFVDDWLKVAAEEAGHFRLLQGRLAELGFSYGDFPAHDGLWAMCRKTDRDAMVRMALVPRVLEARGLDVTPGIQRRLAGIGDHASVAVLDVILRDEVGHVLIGNRWFVRLCRERGLEPQATFRGLLEQHAMQLHPGDYNLDARAAAGFFADELEALARLTESVSDGRLEHHHHHH”: the “soluble on expression in E. coli” value is “soluble”.

In the case of “MGHHHHHHSHMPFTPPVVKRLLGWKKSAGGSGGAGGGEQNGQEEKWCEKAVKSLVKKLKKTGRLDELEKAITTQNCNTKCVTIPSTCSEIWGLSTPNTIDQWDTTGLYSFSEQTRSLDGRLQVSHRKGLPHVIYCRLWRWPDLHSHHELKAIENCEYAFNLKKDEVCVNPYHYQRVETP”, the “soluble on expression in E. coli” value is “soluble”.

In the case of “MRFSPIIGPSSYVSSLCHSILRGELFSTCSVGCIYCYARWYRGAHGKEKPLWESLKLIKMLGGIIREGLAITPIRVSTLSDPFQGEGKITLKFLKLALKEKVPVIINTKLIPREKHIKTIERLAEEGLVVVQVSLPTLEETKVLEPFSPSPGQRLELIERLSRAGVPTIVRVQPFVPGWIRDIHTFIEEIASAGARMIILEFLRIEKELLPLFSKLFPGEDIYKREWESYLPGTSTEEAPLLHPPLDYRLSIAREFSIKAEKEGLAFSTCKEGLFEFHTPLNVDCCGMAFFDVEYISRRPTLWDLYLEIVENGKAKGEDLWERCRREELLCRENLTPYPRWFRRGFIAHEKRLESVLRKPHIVERITPSIKYENGYFIKRKERSNSGYNSFF”, the “soluble on expression in E. coli” value is “not soluble”.

With “MDISVVVPTLNGREELTGCLDALTEQVPDAEVIVVNGPSADGTTGMVRDRDDVSLLVEIADRSVTVARNAGIDRATGDVIALVHQSLSVESGWADAVKDGLSGAAQAITGPTHQQLWAGMTTETEETRTIAGRDVTYFNPGNVAFDAEVVEALDGFDEYLNVGSARDFAHRMAAGEYGVDWSTEMCVSREFEADGGIAETDWNWKYRSLAYRLVKNYNVRPTVVRRILSHAVGDAKDALFDVVRGETTPSQWLGTGQDVFGGVGSGIVDGVRARVTDRTARRNPNGRSARTNRAVTVYDWRLEHHHHHH”, the “soluble on expression in E. coli” value was “not soluble”.

As for “GPGSMPAAPLPGEVAKFCSPLYMHKRILRAAAPKPPTVFTAKDNSKTAFHVVTQRPGFATTPYTVSRWYLKEKVHSSNRNRLEGLYECVLCASCTGSCPQYWWNRELFLGPAVLLQSYRWLIEPLDRDFDSRVKMFEHGPLVNFCHNIFNCSITCPKFLNPGMASKEIKRLSSPATLRVGPPLEDAKVASKY”, the “soluble on expression in E. coli” value is reported as “not soluble”.

Turning to “MAEVITLSDDDDDVIPLTPRPPVVLKTSTTANHGNNSQATVHVSTGKNLNFDQIGIRRLSDVYNKNQPAFRGNEIPTGIRNSRPSLPATAILQNPQFLVQLAAKGLKRPFSSVHSTPAVVPSTSIQRTRNNQNAGNTPNIYKGHYMFEATESYEPSRRSSRYNTKKIEGKFMCSYNPTKCYKLCGSVVEVINHIWAHVIHDPPLPPIEKKESKDDGMFSCLLRNSDAAQLAENSALSLKRLQTCQFCNAVFRTVHLKTIHVVKCHMEQDHLDTTCNICELDFGNSIALNTHMKKHISGEAPYNCQKCKYRTSVRAFFYQHFIEKHSNETLLCPICLHHEDLRPNVRRSKHIFVREFVNHMRSHALGPQMRCHVCALTFTSRLLLEAHRTNDHTMLNSLWQVIERKSVHETEREHMSKRNKIGLLQRRFFETLEGRRINDEVACAGDKEREGFDLTTTGDTLFECECGFKSWNGNRTASHYHKCRRSINDIERKREIVRLGSDPKEELELFAVYPQPTNTEAETEEATLRKIHLERGDPLPILEDIVYQPIDDLPLLKMLSKNHDKSLEIMEKCTASAVTTED”, the “soluble on expression in E. coli” value was “not soluble”.

Consider “MPTVSLGRFQKEDGINVPDWIDVVRRPSGGRALLHHREITYCLAVPKKINFGKLSVLEFHRLVHSLIRDALVEAGLHAELSSKRRGNTALCFDAPSRYEIVINGVKVVGSAQFRTAESIVEHGSIVLKQDIDL”, for which the “soluble on expression in E. coli” value is on record as “soluble”.

Turning to “MSLVKPKYQRVVLKLSGEALAGEDGFGIKPPVIKEIVQEIKEVHELGIEMAIVVGGGNIWRGQIGAQMGMERAQADYMGMLATVMNALALQDTLENLGVPTRVQTSIEMRQIAEPYIRRRAERHLEKGRVVIFAGGTGNPYFSTDTTAALRAAEVDADVILMAKNNVDGVYSADPRVDETATKFEELTHLDVISKGLQVMDSTASSLSMDNDIPLVVFNLNEAGNIRRAILGENIGTTVRGKEGHHHHHH”, the “soluble on expression in E. coli” value was “soluble”.

Regarding “MRIFLNTVHLFALCAAAAIATEESTTPKPASWKFGTIAGEPDDYTNSTAVQVNNFKECIAKCSAIFDCIIASQKSKSEPCNLFLWNSVTKVKRAESGGEGQTAFRVFTEQPRCKLSMDELLNGKKYQIYKNDTEHYIWTINKTEDGWAMEYSKTILNNIIHCNDPDAYKYPGVRGCYKIVLPFKEDKKWESGMLSYPEAVGNCTLLGGDGLMTIPSSDFASQIKQNQNSTQSSTVYFIGLTRPDDSSNDNWVWTLPDLKIDSSPLPPWSFPPSLNVEAIWAENCALVSIEADPTKSLLHATLCQQWNRMSGYICHFAQ”, the “soluble on expression in E. coli” value is listed as “not soluble”.

In the case of “MAHHHHHHMSEEKGAYLVFDNASNGTLFIVWKKEKVENALMFIKPTKEVPEFKFVNRNGKNELIRNLQSDKKLFYSGICQFVKEAKDIKGKLTLLQHFDSSFPIKVDLYFLKGSKVMPLNTGEPFVVQDIDAMSVLPKGSSSLKVKTMAKDMFVSRGNTEGASISF”, the “soluble on expression in E. coli” value is “not soluble”.

Turning to “MERSRDFLLQAKRDLEQARLSLREGFFEWAAFAAQQAAEKAVKAVFQRLGAVAWGHSVAGLLEELAQKLPVPEALLDAASELDKAYIPSRYPDALPEGAPFQRYRRGEAERLLGHAEAVYAYCEGVLSQMDEGGAPPPHRGGA”, the “soluble on expression in E. coli” value was “soluble”.

Consider “MESIGLVIVSHSKHIAEGVVELISKVAKDVPITYVRGTEGGGIGTSFEQVDRVVSENPADTLLAFFDLGSAKMNLKMVTDFSDKSIIINRVPIVEGAYNAAALLQAGAELSVIQTQLAELEINK”, for which the “soluble on expression in E. coli” value is “not soluble”.

Regarding “MTTFTHINSQGEANMVDVSAKAETVREARAEAIVTMSKETLSMIVEGKHHKGDVFATARIAGIQAAKRTWELIPLCHPLLLSKVEVNLEPLLETNQVRIQSLCKLTGKTGVEMEALTAASVAALTIYDMCKAVQKDIVIEHVRLLEKSGGKSGHFIAEEK”, the “soluble on expression in E. coli” value was “soluble”.

As to “MTNLKAVIPVAGLGMHMLPATKAIPKEMLPIVDKPMIQYIVDEIVAAGIKEILLVTHASKNAVENHFDTSYELESLLEQRVKRQLLAEVQSICPPGVTIMNVRQGEPLGLGHSILCARPAIGDNPFVVVLPDVVIDDASADPLRYNLAAMIARFNETGRSQVLAKRMPGDLSEYSVIQTKEPLDREGKVSRIVEFIEKPDQPQTLDSDIMAVGRYVLSADIWPELERTQPGAWGRIQLTDAIAELAKKQSVDAMLMTGDSYDCGKKMGYMQAFVKYGLRNLKEGAKFRKGIEKLLSE”, the “soluble on expression in E. coli” value was “not soluble”.

For the sequence “MSLAIRVVCISDTHDLKVDIPRGDILIHAGDLTDGGTVSDIQKQLDWLKEQPHPIKVVVAGNHDSWFDQKSRPEEDARSGAKPDMDGLIYLESGLTVQKVKGRTVNIFGVPDIPEIGPKEFAFQYATDNHPWLSKVPPQTDILVTHCPPKHHLDLGLGDSNLLREVWRVKPRLHVFGHVHCAYGKESVFFDNFQQTYERIMSRPRRGPILDFIPNEAWLDYLRFLAQGIHAVAWKWIMSGPGSNNGSLMVNAAQMKGNSGKVKSRAVVVEIEGHHHHHH”, the “soluble on expression in E. coli” value is reported as “soluble”.

Turning to “MSLPPRPYDNRPPTGVRAKPVINLNIEYTSCNDSVAPACSTRPMLIENMINQRNVNINVLEGYDPKSKSVINQHSIYHLYEFESKTRFLDRIPRPRVSRFTELKTRFLCCRYVLCAIDDVMQKQKPMELMAIRLNGDIYIGANKSMDLQTDKKTQEAAFGGLNFAMKVTRESDQKILKKHHSVVKQLRIENTRNSMSMSIFVSSVARAFDQRGNVVELKTVGSKVMGKVQNLSRLKARDWWLRALLSGADRIVYGLRMDNMKVNEIHEAQLTDFTKGHFRFDGAKLFSEIFKIFSTIDKIIGAEGDMCMVKSDGSTPISVTLTTRESLKRSPFW”, the “soluble on expression in E. coli” value is “not soluble”.

With “SEHWQAGRFIGQQTSARPSSKPLLAVQIDDLLTLASRFVGEERARQSFIRFAYRQGKGFNPNQNADGDWIEHTERLLAGVLGTSSTRAVVKAAIEGRDMQLEDVVRIADEASEVLQFNRALLQGAIENINQGISVVDQNL”, the “soluble on expression in E. coli” value is recorded as “not soluble”.

As to “MADNYVIWFENLRMTDVERVGGKNASLGEMISQLTEKGVRVPGGFATTAEAYRAFLAHNGLSERISAALAKLDVEDVAELARVGKEIRQWILDTPFPEQLDAEIEAAWNKMVADAGGADISVAVRSSATAEDLPDASFAGQQETFLNINGLDNVKEAMHHVFASLYNDRAISYRVHKGFEHDIVALSAGVQRMVRSDSGASGVMFTLDTESGYDQVVFVTSSYGLGENVVQGAVNPDEFYVFKPTLKAGKPAILRKTMGSKHIKMIFTDKAEAGKSVTNVDVPEEDRNRFSITDEEITELAHYALTIEKHYGRPMDIEWGRDGLDGKLYILQARPETVKSQEEGNRNLRRFAINGDKTVLCEGRAIGQKVGQGKVRLIKDASEMDSVEAGDVLVTDMTDPDWEPV”, the “soluble on expression in E. coli” value is on record as “not soluble”.

“MGSDKIHHHHHHMAQRSILVGQIWHEGHSFNPILTREKDFLFLRGEAVLEEARASSTALSGIVKTAEALGYRCVPSISARARPGGAIEQKVFDNIVDEFVQAARMQDFDAICLDLHGATLAEHTLDTEGYLLSRLREVVGNDIMISLALDLHAYLTPQMVEQATIITSFRTTPHADIEETGVRAMTLLDSLSNETRPPRAIYSLIPFLTRGNDETWSGPLAEIGAAADRWRARSDVVDLSIFNVHPFLDVPGYGQVVLAYDNGSGAAIDACRDLSDMLWKARDEFQEQLMSVDKALEIARTSRQLLALGDQGDRVMGAGPGDSPEIARVALEHFPGLKVAVPVYDPQAVRTAREAGENATVRMAVGGAFTHSVAPLERDWTVRKLCRARFTNIGPYMAGTEADFGDAAVLTCDAVTVIVTTMAPNVHDPAFYEAVGVPLASQQAVVARAANHYKLSFADIARTITVDTPGLTAFKPHQFPFTQARPFYPLDIVQWSFAPLECNKVG”: the “soluble on expression in E. coli” value was “not soluble”.

In the case of “MQRERTAESSLRVISKEKNSITVEMINYDNTLLRTLVEEILKDDQVDEARYYIKHPVIDNPQIYVRVKSGKPQSAIKRAVRKLSKLYEDLGTQFQKEFQRYESDHMIKAVE”, the “soluble on expression in E. coli” value is “soluble”.

For the origin of these results see the DeepSol protein solubility set.
